Experimental findings from patent US20170267761A1 are described below.

This assay has as its target Sortilin SORTECD_HIS (human) (UniProt Q99523). Kind of assay: HTRF, displacement of PGRN from His-tagged Sortilin ECD. Background: Time-resolved FRET reads energy transfer from a long-lived donor to a nearby acceptor.

Sortilin SORTECD_HIS (human), sequence (Q99523 other isoform, or with tags, fused parts or gaps limits assumed): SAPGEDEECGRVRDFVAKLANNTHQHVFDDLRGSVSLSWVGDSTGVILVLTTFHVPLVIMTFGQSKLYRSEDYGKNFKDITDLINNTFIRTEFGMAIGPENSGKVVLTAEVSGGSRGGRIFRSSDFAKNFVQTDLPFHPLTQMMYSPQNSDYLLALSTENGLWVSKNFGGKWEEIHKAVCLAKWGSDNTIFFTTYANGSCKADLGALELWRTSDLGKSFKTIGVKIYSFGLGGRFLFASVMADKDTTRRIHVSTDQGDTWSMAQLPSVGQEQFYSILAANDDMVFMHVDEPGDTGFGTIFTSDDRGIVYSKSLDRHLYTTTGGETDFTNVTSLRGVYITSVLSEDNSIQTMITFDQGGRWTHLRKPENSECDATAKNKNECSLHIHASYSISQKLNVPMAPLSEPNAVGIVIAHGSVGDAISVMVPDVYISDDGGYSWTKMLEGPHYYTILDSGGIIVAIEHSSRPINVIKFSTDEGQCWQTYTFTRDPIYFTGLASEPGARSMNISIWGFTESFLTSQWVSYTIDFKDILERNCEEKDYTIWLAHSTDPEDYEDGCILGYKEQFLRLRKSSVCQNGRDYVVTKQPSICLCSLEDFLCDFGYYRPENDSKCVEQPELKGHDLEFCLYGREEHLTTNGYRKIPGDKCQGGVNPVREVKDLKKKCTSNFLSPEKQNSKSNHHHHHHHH

As usually defined, the % inhibition is the drop in the measured response relative to a control, in per cent. A low value points to a weak effect. IgG1-b12 (antibody) returned a % inh highest conc of 37% and a % inhibition at 1 µM of 37%.
